From US20210122804A1, “PEPTIDE LIGANDS FOR BINDING TO CD38” (BicycleTx Limited, priority 2018, published 2021) come the findings set out here.

In experiment [1] the target is T1, human CD38 (Homo sapiens, UniProt P28907).
T1 sequence (P28907 1-300): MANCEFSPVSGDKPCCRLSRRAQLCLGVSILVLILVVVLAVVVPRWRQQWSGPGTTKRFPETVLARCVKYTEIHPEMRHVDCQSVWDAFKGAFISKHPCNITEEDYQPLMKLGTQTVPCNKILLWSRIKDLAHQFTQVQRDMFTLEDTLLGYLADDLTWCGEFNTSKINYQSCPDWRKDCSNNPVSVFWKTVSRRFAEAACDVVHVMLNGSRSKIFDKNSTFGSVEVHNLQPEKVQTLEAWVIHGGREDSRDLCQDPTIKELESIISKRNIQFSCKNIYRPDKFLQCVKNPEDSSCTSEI
Description: CD38 Competition Binding Assay (fluorescence polarisation). The note with it: compared with all-thioether Reference Example 1. As to the method:
CD38 Competition Binding Assay Affinity of various bicycle peptide compounds for human CD38 (Ki) was determined using a fluorescence polarisation assay, using the method reported by Lea et al (Expert Opin Drug Discov. 2011 6(1): 17-3) and using the following fluorescently labelled peptides […]-Sar6-K(F1) for TBMB derivatives and […]-Sar6-K(F1) for TATA derivatives where Fl is a fluorescein molecule.
Background: Fluorescence polarisation rises when a labelled molecule tumbles more slowly, as on binding a larger partner.

For experiment [2], the target named is T2, human CD38 (human, UniProt P28907 43-300, limits assumed).
T2 construct: construct used is not described; also called hCD38
T2 sequence (looked up): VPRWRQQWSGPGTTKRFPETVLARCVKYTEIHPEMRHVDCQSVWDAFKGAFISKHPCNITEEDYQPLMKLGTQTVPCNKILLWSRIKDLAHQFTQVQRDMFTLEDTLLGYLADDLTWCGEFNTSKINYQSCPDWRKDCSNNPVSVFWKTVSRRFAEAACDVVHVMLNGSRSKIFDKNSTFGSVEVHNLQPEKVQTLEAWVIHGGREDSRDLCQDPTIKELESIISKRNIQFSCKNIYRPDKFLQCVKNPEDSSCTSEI
Description: fluorescence polarisation competition; tracer m11.

Experiment [3] deals with T2, human CD38. Kind of experiment: fluorescence polarisation competition; tracer m10.

*1 amine or outer side, *2 acyl side, *3 side chain or, on linkers, in order; H or OH if unused. Bridges are numbered along the chain shown (N, C = ends). Where no end group is shown, it is not given here. TATA = O=C(CC[*:1])N1CN(C(=O)CC[*:2])CN(C(=O)CC[*:3])C1; TBMB = c1c(C[*:1])cc(C[*:3])cc1C[*:2]

In the case of [Ac]ACVPCADFPIWYC [BCY00009245], the “affinity to CD38 (in words)” value in experiment [1] is given as “high affinity”.

What is called Ki is the dissociation constant of the complex between target and ligand, obtained from inhibition or displacement. High values mean a looser hold on the target, low ones a stronger hold on the target. In experiment [2], ACYWNPFTACYSCTEN (linker 2-10-13 via TATA (inferred), bicyclic; also called 66-50-19-T02-N001) [66-50-19-T002-N001] showed a Ki of 316 nM.

Molecule ACFTLDGECFLLGENCA (linker 2-9-16 via TBMB, bicyclic) [66-08-52-N001] came in with a Ki in experiment [3] of 562 nM.

As for ACYWNPFTACWSCEND (linker 2-10-13 via TATA (inferred), bicyclic) [66-50-16-T01-N001], the inhibition constant (Ki) in experiment [2] turned out to be 90 nM.
